# Measured values: PMC4664405, “Mapping Soluble Guanylyl Cyclase and Protein Disulfide Isomerase Regions of Interaction” (PLoS ONE, 2015)
# T1: soluble guanylyl cyclase (sGC) α subunit, of the purified reduced sGC (human, UniProt Q02108 1-690)
# T1 construct: soluble guanylyl cyclase α subunit, human GCYA3; called full-length reduced sGC in the discussion; cross-linked lysines K5, K606, K672, K673, K685; Bought as the α/β heterodimer and reduced before incubation with PDI; also called GCYA3; source: bought: Axxora
# T1 sequence (looked up): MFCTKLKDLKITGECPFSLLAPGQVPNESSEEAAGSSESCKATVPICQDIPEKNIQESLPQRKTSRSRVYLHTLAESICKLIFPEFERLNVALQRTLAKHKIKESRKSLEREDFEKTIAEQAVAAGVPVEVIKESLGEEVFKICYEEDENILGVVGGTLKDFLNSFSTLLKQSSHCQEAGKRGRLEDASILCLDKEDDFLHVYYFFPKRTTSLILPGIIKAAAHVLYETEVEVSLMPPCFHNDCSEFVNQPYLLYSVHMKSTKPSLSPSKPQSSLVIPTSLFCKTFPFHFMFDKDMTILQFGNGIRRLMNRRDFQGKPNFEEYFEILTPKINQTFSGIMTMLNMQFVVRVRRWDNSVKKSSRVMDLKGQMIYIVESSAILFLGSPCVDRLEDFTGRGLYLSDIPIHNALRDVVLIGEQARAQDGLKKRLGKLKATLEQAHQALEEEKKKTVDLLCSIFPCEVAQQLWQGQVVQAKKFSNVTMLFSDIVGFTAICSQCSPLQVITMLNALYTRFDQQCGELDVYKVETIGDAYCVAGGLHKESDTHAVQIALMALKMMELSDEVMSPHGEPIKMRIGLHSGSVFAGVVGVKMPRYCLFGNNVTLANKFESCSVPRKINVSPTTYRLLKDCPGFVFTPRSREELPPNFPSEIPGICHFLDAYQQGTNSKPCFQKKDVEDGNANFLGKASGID
# B1: soluble guanylyl cyclase (sGC) β subunit, of the purified reduced sGC (enzyme, human, UniProt Q02153 1-619, looked up)
# chain: MYGFVNHALELLVIRNYGPEVWEDIKKEAQLDEEGQFLVRIIYDDSKTYDLVAAASKVLNLNAGEILQMFGKMFFVFCQESGYDTILRVLGSNVREFLQNLDALHDHLATIYPGMRAPSFRCTDAEKGKGLILHYYSEREGLQDIVIGIIKTVAQQIHGTEIDMKVIQQRNEECDHTQFLIEEKESKEEDFYEDLDRFEENGTQESRISPYTFCKAFPFHIIFDRDLVVTQCGNAIYRVLPQLQPGNCSLLSVFSLVRPHIDISFHGILSHINTVFVLRSKEGLLDVEKLECEDELTGTEISCLRLKGQMIYLPEADSILFLCSPSVMNLDDLTRRGLYLSDIPLHDATRDLVLLGEQFREEYKLTQELEILTDRLQLTLRALEDEKKKTDTLLYSVLPPSVANELRHKRPVPAKRYDNVTILFSGIVGFNAFCSKHASGEGAMKIVNLLNDLYTRFDTLTDSRKNPFVYKVETVGDKYMTVSGLPEPCIHHARSICHLALDMMEIAGQVQVDGESVQITIGIHTGEVVTGVIGQRMPRYCLFGNTVNLTSRTETTGEKGKINVSEYTYRCLMSPENSDPQFHLEHRGPVSMKGKKEPMQVWFLSRKNTGTEETKQDDD
# notes: soluble guanylyl cyclase β subunit, human GCYB1; called full-length reduced sGC in the discussion; cross-linked lysines K127, K187, K559, K615; Bought as the α/β heterodimer and reduced before incubation with PDI; also called GCYB1; source: bought: Axxora
# B2: protein disulfide isomerase (PDI), oxidized, purified (enzyme)
# chain: not shown
# modifications: oxidized: each active site Cys-x-x-Cys forms a disulfide bond
# notes: protein disulfide isomerase, human P4HB; called full-length oxidized PDI in the discussion; cross-linked lysines K370 and K409; also called oxidized PDI; oxPDI; source: PDI in pTRC-HisA, purified as described previously [11]
# Key:
# [1] = biological target: T1, soluble guanylyl cyclase (sGC) α …; test: cross-linking; reduced sGC and oxidized PDI incubated, 50 molar excess of BS3 for 30 minutes at room temperature (22°C) in the dark, alkylated with 40 mM iodoacetamide, non-reducing 7.5% TGX gel, bands digested with trypsin, RPLC-MS/MS, MassMatrix search; conditions: both partners purified
# [2] = biological target: B1; test: as above; conditions: both partners purified
binding result [1],binding result [2],Binder
binds,,B1
binds,binds,B2
